assay: yeast display, Sf9 membrane polyspecificity reagent, FACS + sequencing; frameworks hold sequencing errors
Summary of the method: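 Sorting gates, low and high (top ~1%), were placed on anti-HA fluorescence to track expression and on streptavidin fluorescence to track reagent binding. A clone's polyreactivity label is taken from the gate it came out of. The reagent was 10% biotinylated, detergent-solubilized Sf9 membrane, applied for 1 hour at 4 °C to galactose-induced yeast display cells.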

| Sequence | polyreactivity (PSR sort gate) |
| --- | --- |
| QVQLVESGGGLVQAGGSLRLSCAASGSTFPRNAMGWYRQAPGKERELVARITWSGGDTYYADSVKGRFTISRDNSKNTVYLQMISLKPEDTAVYYCAARWYRSVLAKVGYGYWGQGTQVTVSS | high polyreactivity |
| QVQLVESGGGLVQAGGSLRLSCAASGSTFSRYAMGWYRQAPGKERELVAAISSGDRTNYADSVKGRFTISRDNAKNTVYLQMNSLKPEDTAVYYCADDLFPIAGEYDYWGQGTQVTVSS | high polyreactivity |
| QVQLVESGGGLVQAGGSLRLSCADSGSTFNSNVMGWYRQAPGKERELVAAISRSGGNTYYADSVKGRFTISRDNAKNTVYLQMNSLKPEDTAVYYCNKDGRYPYDYWGQGTQVTVSS | high polyreactivity |
| QVQLVESGGGLVQAGGSLRLSCAASGRIFRDYAMGWYRQAPGKETELVATITWSGATTYYADSVKGRFTISRDNAKNTVYLQMNSLKPEDTAVYYCNTDTDVDVAFDSWGQGTQVTVSS | low polyreactivity |
| QVHLVESGGCLVQAGGSLRLSCSASRSIFPNNDMGWYRQQPGKERELVPAITTRGTSTYYAESVKGRFTISRDYAKNTVYLQMKSLKPEDTAVYFCAVGRRGYSAGGVAYYYWGQGTQVTVSS | low polyreactivity |
| QVQLVESGGGLVQAGGSLRLSCAASGFTFGWYAMGWYRQAPGKERELVAAIDESGGTTYYADSVKGRFTISRDNAKNTVYLQMNSLKPEDTAVYYCAADKKTPYEDDYWGQGTQVTVSS | low polyreactivity |
| QVQLVESGGGLVQAGGSLRLSCAASGRIFSYNAMGWYRQAPGKERELVAAISYGGGRTYYADSVKGRFTISRDNAKNTVYLQMNSLKPEDTAVYYCAATSSLGDFRYDYWRQGTQVTVSS | high polyreactivity |
| QVQLIESGGGLVQAGGSLRLSCAASGRTFYVNAMGWYRQAPGKERELVAAIRSGGSTSYADSVKGRFTISRDNAKNTVYLQMNSLKPEDTAVYYCAAKSGLDLYYGLGGYWGQGTQVTVSS | high polyreactivity |
| QVQLVESGGGLVQAGGSLRLSCAASGSTFDVYAMGWYRQAPGKERELVAAISFSSGSTYYADSVKGRFTISRDNAKNTVYLQMNSLKPEDTAVYYCAARTYRYPYWGYDYWGQGTQVTVSS | high polyreactivity |
| QVQLVESGGGLVQAGGSLRLSCAAWSIFYLNAMGWYRQAPGKERELVAAISSAGSTYYADSVKGRFTISRDNAKNTVYLQLNSLKPEDTAVYYCAAYWYDSPGVTEIWYDYWGQGTQVTVSS | low polyreactivity |
| QVQLVESGGGLVQAGGSLRLTCAASGITFRAYVMGWYRQEPGKERELVAAINRRGGSTYYADSVKGRFTISRDNAKNTVYLQMNSLKPEDTAVYYCAAGLYSTGYTYDYWGQGTQVTVSS | high polyreactivity |
| QVQLVESGGGLVQAGGSLRLSCSSSGSIFVKNAMGWYRQAPGKERELVATISTGGRTYYADSVKGRFTISRDNAKNTVYLQMNSLIPEDTAVYYCATDFYPRYLLRTYRPYYYCGQGTQVTVSS | low polyreactivity |
| QVQLVESGGGLVQAGGSLRLSCAASGSIFGTNAMGWYRQAPGKEREMVAAISLSTGSTYYADSVKGRFTISRDKAKNTVYLQMNSLKPEDTAVYSCAAYYVTPIYYYLGQGTQVTVSS | low polyreactivity |
| QVQLVESGGGLVQAGGSLRLSCAASGLTDVRYAMGWYRQAPGKEREFVAAINWRGTRTYADSVKGRYTISRDNAKNTVYLQMNSLKPEDTAVYYCAARTLYFSKYVYWGQGTQVTVSS | high polyreactivity |
| QVQLVESGGGLVQAGGSLRLSCAASGFTFGRYAMGWYRQATGKERELVAAITWSGGSTHYADSVKGRFTISRDNAKNTVYLQMNSLKPEDTAVYYCAVRVIYWSGSQVSVEYYYWGQGTQVTVSS | low polyreactivity |
| QVQLVESGRGLVQAGGSLPLSCSASGSIFAYYTMGWYRQAPGKERDLVAAISETGGSTYYADSVKGRFTISRDIAKNTVYLQMNSLKPEDTAVYYCNADKYYYYTGQEYYPQYGYWGQGTQVSVSS | low polyreactivity |
| QVQLVESGGGLVQAGGSLRLSCAASGSIYRYYPMGWYRQAPGKEREFVAAITYSDSDTYYADSVKGRFTISRDNAKNTVYLQMNRLKPEDTAVYYCAARFRRTRVTYYYWGQGTQVTVSS | high polyreactivity |
| QVQLVESGGGLVQAGGSLRLSCDASGSTFRANAMGWYRQAPGKECELVAAISQSGGITYYADSVKGRFTISRDNAKNTVYLQMNCLKPEDTAVYYCAAKGSYSYDVGGPVYQRTYGYWGQGTQVTVSS | high polyreactivity |
| QVQLVESGGGLVQAGGSLRLSCAASGSTFNRYAMGWYRQAPGKERELVASISCSGGASTYYADSVKGRFTISRDNAKNTVYLQMNSLKPEDTAVYYCAVSRDSYGGKGSVLYDYWGQGTQVTVSS | low polyreactivity |
| QFQRVESGGGLVQAGGSLRLTCAASGIIFVYNAMGWFRQATGKERELVAAINWRGDGTYYADSVKGRFTISRDNAKNTVYLQMNSLKQEDTAVYYCNAVRFRPNSHYRPVGYDYWGQGTQVTVSS | low polyreactivity |

| Sequence | polyreactivity (PSR sort gate) |
| --- | --- |
| QVQLVESGGGLVQAGGSLRLSSAASGSTFKYYAMGWYRPDPGKERELVAAIRTSGGRTYYADSVKGRFTISRDNAKNTVDLQMNSLKPEDSAVYFCNARYNQFGQRFDYWGQGSQVTVSS | high polyreactivity |
| QVQLVESVGGLVQAGGSLRLSFAASGSTFDVYAMGWYRQAPGKERELVAAIRSSGGSTFYADSVKGRFTISRDNAKNIVYLQMNSLNPEDTAVYYCAARSFVVSGYNKYYEYGYWGQGTQVTVSS | low polyreactivity |
| QVQLVESGGGLVQAGGCLRLSCAASGRIFYANTMGWYRQAPGIEWELVASMYGAVGTYADSVKGRFTISRDKAKNTVSLQMNSLKPEDTAVYYCNAYLTRPVEEYLWDGYYYWGQGTQVTVSA | low polyreactivity |
| QVQLVESGGGLVQAGGSLRLSCAASGIIFVKYVMGWYRQAPGKERELVAAITGTGRTNYADSVKGRFTISRDNAKNTVYLQMNSLKPEDTAVYYCNARQAGTRYKYGYYGRYYWGQGTQVSVSS | high polyreactivity |
| QVQLVESGGGLVQAGGSLRLSCAASGRTFTYYAMGWYIQAPGKERELVAAITSGGRTYYADSVKGRFTISRDNAKNHVYLQMNSLKPEDTAVYYCAARRIRDYYRSYDYWGQGTQVTVSS | high polyreactivity |
| QVQLVESGGGLVQAGGSLRLSCAASGSTFWYAMGWYRQAPGKERELVAAITARGGRTYYADSVKGRFTISRDNAKNTVYLQMNSLKPEDTAVYYCARLSYAGGQWIIGKYDYWGQGTQVTVSS | high polyreactivity |
| QVQLVESGGGIVQAGGSLRLSCAASGYTYPRYTMGWYRQAPGKERELVAVIRRSGGTHYADSVKGRFTISRDNAKNTVYLHMNRLKPEETAVYYCAVVSFLPNIPYGYWGQGTQVTVSS | high polyreactivity |
| QVQLVESGGGLVQAGGSLRLSCAASGSTFPANAMGCYRQAPGKERELVATISWSCGRTYYADSVKGRFTISRDNAKNTVYLQMNSLKPEDSAVYYCAKGYYWLSTYGDSRYGYWGQGTQVTVSS | high polyreactivity |
| QVQLVESGGGLVQAGGSLRLSFAASGNILKSYAMGWYRQAHGKERELVAAISSSGGSTYYADSVKGRFTISRDNAKNSVYLQMNSLKPEDTAVYYCNAGAKSGKYYYWGQGTKVTVSS | low polyreactivity |
| QVQLVESGGGLVQAGGSLRLSCAASGSTFYPYAMGWYRQATGKERELVAGISWSGGSTYYADSVKGRFTFSRDNAKNTVYLQMNSLNPEDTAVYYCAVDVYWSVIYDYWGQGTQVTVSS | low polyreactivity |
| QFQLVESGGGLVQAGGSLRLSSAASGFIFAHNAMGWYRQAPGKERELVDAITSSGGSTYYADSVKGRFSISRDNAKNTVYLQMNSLKPEDTAVYYCNAYTYARRGYDYWGQGTQVTVSS | high polyreactivity |
| QVQLVESGGGLVQAGGSLRLSCAASGYTFTRYAMGWYRQAPGKEREFVAAITSGGGSTYYADSVKGRFTISRDNAKNTVYLQMNSLKPEDTAVYYCAATRLVSYHYPDLDSQQGGYWGQGTQVTVSS | low polyreactivity |
| QVQLVESGGGLVQAGGSLRLSCAASGFIFVYNDMGWYRQAPGKERELVAAISSSGGSTYYADSVKGRFTISRDNAKNTVYLKMNSLKAEDTAVYYCAKTGWNLDYSYSTDGYDYWGQGTLVTVSS | high polyreactivity |
| QVQLVESGGGLVQAGGRLRLSCAASGRIYGLYAMGWYRQAPGKERELVAAITLSGDGTDYADSVKGRFTISRDNAKNTVYLQMTSLKPDDTAVYYCAKVGQYWWNMDYWGQGTQVTVSS | low polyreactivity |
| QVQLVESGGGLVQAGGSLRLTCAASGSILDYYVMGWYRQAPAKEREMVAAIRGGGSTYYADSVKGRFTISRDNAKNTVYLQMNSLKPEDTAVYYCAKDSQTARDFDYWGQGSQVTVSS | low polyreactivity |
| QVQLVESGGGLVQAGGSLRLSCAASGITFLYYAMGWYRQAPGKERELVAAITRGGRTNYADSVKGRFTISRDNAKNTVYLQMNSLKPEDTAVYYCAARRSRPTYYSTGVNYWGQGTQVTVSS | high polyreactivity |
| QVQLVESGGGLVQAGGSLRLSCAASGRTFFTNTMGWYRQAPGKERELVAAITRSGASTYYADSVKGRFTISRDNAKNTVYLQMNSLKPEDTAVYYCAAQRSKYSTVGKYGYWGQGTQVTVSS | high polyreactivity |
| QVQLVESGGGLVQAGGSLRLSCAASGGIFYRNAMGWYRQAPGKERELVAAISSGGGSTYYADSVKGRFTISRDNAKNTVYLQMNSLKPEDTAVYYCARDSYHLYIQPFGYWGQGTQVTVSS | low polyreactivity |
| QVQLVESGGGLVQAGGSLRLSCAASGRIFDLYAMGWYRQAPGKEREFVAAISGRGGSTYYADSVKGRFTISRDNAKNTVYLQMNSLKPEDTAVYYCNAKRSLYGRYGYWGQGSQVTVSS | high polyreactivity |
| QVHLVESGGGLVQAGGSLRLSCAASGSTFAIYAMVWYRQAPGKERELVAAIRQRAGSTYYADSVKGRFTISRDNAKNTVYLQMNSLKPEDTAVHYCATATRPISRGYWGQGTQVTVSS | low polyreactivity |

— the nanobody polyreactivity screen of Harvey et al. (2022)
